Consider two molecules from article PMC7980507 (Protein Science : A Publication of the Protein Society, 2021).

In the assay the target is His‐tagged SARS‐CoV‐2 spike receptor binding domain (RBD) (SARS-CoV-2, UniProt P0DTC2). In words: BLI. For orientation: BLI is a label-free optical method that tracks binding on a fibre tip over time.

B1: CB6 (antibody, V domains shown)
VH: EVQLVESGGGLVQPGGSLRLSCAASGFTVSSNYMSWVRQAPGKGLEWVSVIYSGGSTFYADSVKGRFTISRDNSMNTLFLQMNSLRAEDTAVYYCARVLPMYGDYLDYWGQGTLVTVSS
VL: not shown
As for B1, the binding result was “binds”.

B2: EY6A (antibody, V domains shown)
VH: EVQLVESGGGVVQPGRSLRLSCAASAFTFSSYDMHWVRQAPGKGLEWVAVISYDGSNKYYADSVKGRFTISRDNSKNTLYLQMNSLRAEDTAVYYCAKDGGKLWVYYFDYWGQGTLVTVSS
VL: not shown
With B2, the binding result is given as “binds”.
